Source: paper PMC6358717 (Proceedings of the National Academy of Sciences of the …, 2018)
Values joined by “and” are separate entries in the source; they are usually repeats but may differ in a detail not shown here. Equal values may be shown once.

B1: human lipoprotein lipase harboring an R324A mutation (enzyme, UniProt P06858 28-475, looked up)
chain: ADQRRDFIDIESKFALRTPEDTAEDTCHLIPGVAESVATCHFNHSSKTFMVIHGWTVTGMYESWVPKLVAALYKREPDSNVIVVDWLSRAQEHYPVSAGYTKLVGQDVARFINWMEEEFNYPLDNVHLLGYSLGAHAAGIAGSLTNKKVNRITGLDPAGPNFEYAEAPSRLSPDDADFVDVLHTFTRGSPGRSIGIQKPVGHVDIYPNGGTFQPGCNIGEAIRVIAERGLGDVDQLVKCSHERSIHLFIDSLLNEENPSKAYRCSSKEAFEKGLCLSCRKNRCNNLGYEINKVRAKASSKMYLKTRSQMPYKVFHYQVKIHFSGTESETHTNQAFEISLYGTVAESENIPFTLPEVSTNKTYSFLIYTEVDIGELLMLKLKWKSDSYFSWSDWWSSPGFAIQKIRVKAGETQKKVIFCSREKVSHLQKGKAPAVFVKCHDKSLNKKSG
modifications: N-linked glycans at N70 and N386

Experiments:
[1] = molecular target: human GPIHBP1 coated on ELISA wells (human) (UniProt Q8IV16); assay: ELISA
[2] = molecular target: the molecule itself; assay: crystal structure

Chain of human GPIHBP1 coated on ELISA wells (human) (Q8IV16 21-151): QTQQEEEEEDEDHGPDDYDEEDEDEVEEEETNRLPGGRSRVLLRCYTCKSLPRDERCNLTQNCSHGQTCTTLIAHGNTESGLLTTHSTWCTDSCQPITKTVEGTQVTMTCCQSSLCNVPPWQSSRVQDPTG

Molecule | percent reduction of binding against LPL-wt [1] | binding result [2]
FLAG-tagged human LPL-M404R (from UniProt P06858 28-475) (enzyme) | 79% and 85% | –
B1 | – | binds
